Numbering of substitutions follows the chain as printed.
B1: CD79b/5C7 (2+1 B) Fc-silenced (bispecific antibody, human IgG1, kappa, L234A L235A)
heavy 1: EQQLVETGGGLIQPGGSLRLSCAASGFTINIDYWISWVRQAPGKGLEWIGIIDPGDGTTYFAIWVSGRFTISFDNSKNTVYLQMNSLRAEDTAVYFCVREFSASAYQYDLWGPGTLVTVSSASTKGPSVFPLAPSSKSTSGGTAALGCLVKDYFPEPVTVSWNSGALTSGVHTFPAVLQSSGLYSLSSVVTVPSSSLGTQTYICNVNHKPSNTKVDKKVEPKSCDKTHTCPPCPAPEAAGGPSVFLFPPKPKDTLMISRTPEVTCVVVDVSHEDPEVKFNWYVDGVEVHNAKTKPREEQYNSTYRVVSVLTVLHQDWLNGKEYKCKVSNKALGAPIEKTISKAKGQPREPQVCTLPPSRDELTKNQVSLSCAVKGFYPSDIAVEWESNGQPENNYKTTPPVLDSDGSFFLVSKLTVDKSRWQQGNVFSCSVMHEALHNRFTQKSLSLSPGK
heavy 2: not shown
light: ELVMTQSPATLSVSPGERATLSCRASEDIENYLAWYQQKPGQPPRLLIYRASTLSSGVPARFSGSGSGTEFTLTISSLQSEDFAVYYCQQGYRNSNVDNPFGGGTKVEIKRTVAAPSVFIFPPSDEQLKSGTASVVCLLNNFYPREAKVQWKVDNALQSGNSQESVTEQDSKDSTYSLSSTLTLSKADYEKHKVYACEVTHQGLSSPVTKSFNRGEC
B2: CD79b/5C7 (2+1 B) Fc-optimized (bispecific antibody, human IgG1, kappa)
heavy 1: B1 heavy 1 with A238L, A239L, G240A, G333P, A334L, I336E, C353Y, R439H, F440Y
heavy 2: EQQLVETGGGLIQPGGSLRLSCAASGFTINIDYWISWVRQAPGKGLEWIGIIDPGDGTTYFAIWVSGRFTISFDNSKNTVYLQMNSLRAEDTAVYFCVREFSASAYQYDLWGPGTLVTVSSASTKGPSVFPLAPSSKSTSGGTAALGCLVKDYFPEPVTVSWNSGALTSGVHTFPAVLQSSGLYSLSSVVTVPSSSLGTQTYICNVNHKPSNTKVDKKVEPKSCDKTHTCPPCPAPELLAGPSVFLFPPKPKDTLMISRTPEVTCVVVDVSHEDPEVKFNWYVDGVEVHNAKTKPREEQYNSTYRVVSVLTVLHQDWLNGKEYKCKVSNKALPLPEEKTISKAKGQPREPQVYTLPPSRDELTKNQVSLWCLVKGFYPSDIAVEWESNGQPENNYKTTPPVLDSDGSFFLYSKLTVDKSRWQQGNVFSCSVMHEALHNHYTQKSLSLSPGKGGGGSGGGGSGGGGSDIQMTQSPSSLSASVGDRVTITCQASESVDRNNRLAWFQQKPGKPPKLLIYTTSTLASGVPSRFSGSGSGTDFTLTISSLQPEDVATYYCAGYRGAHTDGDAFGGGTKVEIKGGGGSGGGGSGGGGSGGGGSEQQLVESGGGLVKPGGSLRLSCAASGFSFSRSSYMCWVRQAPGKGLEWIGCLSVGDGHTYYASWAKGRFTISKDSAKNSVYLQMNSLRAEDTAVYFCARAPSYSGDGGHGYDLWGPGTLVTVSS
light: B1 light
B3: CD79b/5C7 (1+1 B) Fc-silenced (bispecific antibody, human IgG1, kappa, L234A L235A)
heavy 1: B1 heavy 1
heavy 2: not shown
light: B1 light
B4: CD79b/5C7 (1+1 B) Fc-optimized (bispecific antibody, human IgG1, kappa)
heavy 1: B1 heavy 1 with A238L, A239L, G240A, G333P, A334L, I336E, C353Y, R439H, F440Y
heavy 2: DIQMTQSPSSLSASVGDRVTITCQASESVDRNNRLAWFQQKPGKPPKLLIYTTSTLASGVPSRFSGSGSGTDFTLTISSLQPEDVATYYCAGYRGAHTDGDAFGGGTKVEIKGGGGSGGGGSGGGGSGGGGSEQQLVESGGGLVKPGGSLRLSCAASGFSFSRSSYMCWVRQAPGKGLEWIGCLSVGDGHTYYASWAKGRFTISKDSAKNSVYLQMNSLRAEDTAVYFCARAPSYSGDGGHGYDLWGPGTLVTVSSDKTHTCPPCPAPELLAGPSVFLFPPKPKDTLMISRTPEVTCVVVDVSHEDPEVKFNWYVDGVEVHNAKTKPREEQYNSTYRVVSVLTVLHQDWLNGKEYKCKVSNKALPLPEEKTISKAKGQPREPQVYTLPPSRDELTKNQVSLWCLVKGFYPSDIAVEWESNGQPENNYKTTPPVLDSDGSFFLYSKLTVDKSRWQQGNVFSCSVMHEALHNHYTQKSLSLSPGK
light: B1 light
B5: CD79b/5C7 (2+1 A) Fc-silenced (bispecific antibody, human IgG1, kappa, L234A L235A)
heavy 1: EQQLVETGGGLIQPGGSLRLSCAASGFTINIDYWISWVRQAPGKGLEWIGIIDPGDGTTYFAIWVSGRFTISFDNSKNTVYLQMNSLRAEDTAVYFCVREFSASAYQYDLWGPGTLVTVSSASTKGPSVFPLAPSSKSTSGGTAALGCLVKDYFPEPVTVSWNSGALTSGVHTFPAVLQSSGLYSLSSVVTVPSSSLGTQTYICNVNHKPSNTKVDKKVEPKSCDGGGGSGGGGSGGGGSEQQLVETGGGLIQPGGSLRLSCAASGFTINIDYWISWVRQAPGKGLEWIGIIDPGDGTTYFAIWVSGRFTISFDNSKNTVYLQMNSLRAEDTAVYFCVREFSASAYQYDLWGPGTLVTVSSASTKGPSVFPLAPSSKSTSGGTAALGCLVKDYFPEPVTVSWNSGALTSGVHTFPAVLQSSGLYSLSSVVTVPSSSLGTQTYICNVNHKPSNTKVDKKVEPKSCDKTHTCPPCPAPEAAGGPSVFLFPPKPKDTLMISRTPEVTCVVVDVSHEDPEVKFNWYVDGVEVHNAKTKPREEQYNSTYRVVSVLTVLHQDWLNGKEYKCKVSNKALGAPIEKTISKAKGQPREPQVCTLPPSRDELTKNQVSLSCAVKGFYPSDIAVEWESNGQPENNYKTTPPVLDSDGSFFLVSKLTVDKSRWQQGNVFSCSVMHEALHNRFTQKSLSLSPGK
heavy 2: not shown
light: B1 light
B6: CD79b/5C7 (2+2 B) Fc-silenced (bispecific antibody, human IgG1, kappa, L234A L235A)
heavy: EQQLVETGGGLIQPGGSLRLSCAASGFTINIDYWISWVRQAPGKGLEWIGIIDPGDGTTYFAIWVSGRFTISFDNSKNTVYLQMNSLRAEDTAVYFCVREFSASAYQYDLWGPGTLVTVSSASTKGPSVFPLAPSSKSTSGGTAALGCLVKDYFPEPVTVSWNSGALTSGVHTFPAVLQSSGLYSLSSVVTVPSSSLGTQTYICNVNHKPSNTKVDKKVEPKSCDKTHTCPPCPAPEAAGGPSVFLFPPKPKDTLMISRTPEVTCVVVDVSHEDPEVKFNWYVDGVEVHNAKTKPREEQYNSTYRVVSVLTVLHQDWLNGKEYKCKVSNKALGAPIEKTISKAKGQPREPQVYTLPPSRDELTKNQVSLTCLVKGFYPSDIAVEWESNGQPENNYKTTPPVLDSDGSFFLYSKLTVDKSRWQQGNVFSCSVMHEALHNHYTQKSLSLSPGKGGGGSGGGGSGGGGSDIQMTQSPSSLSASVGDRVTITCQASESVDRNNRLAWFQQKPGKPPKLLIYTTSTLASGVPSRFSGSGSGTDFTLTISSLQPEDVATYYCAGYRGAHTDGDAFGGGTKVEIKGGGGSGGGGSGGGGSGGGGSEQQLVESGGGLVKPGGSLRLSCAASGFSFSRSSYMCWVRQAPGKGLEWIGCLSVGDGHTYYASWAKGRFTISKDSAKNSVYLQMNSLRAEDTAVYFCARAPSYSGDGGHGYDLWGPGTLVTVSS
light: B1 light

Tests used:
Test in all cases: cell-based or functional assay
[1] = target: T1, CD79b on Ramos cells and on endogenous B cells of human PBMCs (human, UniProt P40259 29-229)
T1 sequence (looked up): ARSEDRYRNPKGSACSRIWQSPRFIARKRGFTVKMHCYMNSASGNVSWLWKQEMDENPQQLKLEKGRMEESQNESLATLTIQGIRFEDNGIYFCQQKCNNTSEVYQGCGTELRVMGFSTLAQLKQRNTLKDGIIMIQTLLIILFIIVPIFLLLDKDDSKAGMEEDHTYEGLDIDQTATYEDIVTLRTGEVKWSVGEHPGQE

[2] = target: T1, CD79b on Ramos cells and on endogenous …; remark: listed apart in the source
[3] = target: T1, CD79b on Ramos cells and on endogenous …; remark: listed apart in the source
[4] = target: T1, CD79b on Ramos cells and on endogenous …; remark: listed apart in the source
[5] = target: T1, CD79b on Ramos cells and on endogenous …; remark: listed apart in the source
[6] = target: T1, CD79b on Ramos cells and on endogenous …; remark: listed apart in the source

Row | Binder | IC50 (nM), Ramos cell killing by PBMCs (test 2), Donor 431 [1] | IC50 (nM), Ramos cell killing by M0 macrophages, Donor 022 [2] | IC50 (nM), Ramos cell killing by M0 macrophages, Donor 431 [2] | IC50 (nM), Ramos cell killing by M2 macrophages, Donor 022 [3] | IC50 (nM), Ramos cell killing by M2 macrophages, Donor 431 [3] | IC50 (nM), Ramos cell killing by PBMCs (test 3), Donor 281 [4] | IC50 (nM), Ramos cell killing by PBMCs (test 3), Donor 367 [4] | IC50 (nM), Ramos cell killing by M1 macrophages, Donor 431 [5] | IC50 (nM), killing of endogenous B cells by PBMCs, Donor 367 [6] | IC50 (nM), killing of endogenous B cells by PBMCs, Donor 431 [6] | IC50 (nM), Ramos cell killing by M0 macrophages, Donor 100 [2] | IC50 (nM), Ramos cell killing by M0 macrophages, Donor 233 [2] | IC50 (nM), Ramos cell killing by M2 macrophages, Donor 100 [3] | IC50 (nM), Ramos cell killing by M2 macrophages, Donor 233 [3] | IC50 (nM), Ramos cell killing by PBMCs (test 3), Donor 022 [4] | IC50 (nM), Ramos cell killing by M1 macrophages, Donor 100 [5] | IC50 (nM), killing of endogenous B cells by PBMCs, Donor 023 [6] | further results
1 | B1 | 0.0155 nM | 0.003 nM | 0.002 nM | 0.002 nM | 0.002 nM | 0.0165 nM | 0.0685 nM | 0.005 nM | 0.0155 nM | 0.0155 nM |  |  |  |  |  |  |  | 
2 | B2 | 0.0104 nM | 0.003 nM | 0.004 nM | 0.002 nM | 0.001 nM | 0.0112 nM | 0.0186 nM | 0.005 nM | 0.104 nM | 0.104 nM |  |  |  |  |  |  |  | IC50 (nM), Ramos cell killing by PBMCs (test 2), Donor 234 [1]: 0.0639 nM; IC50 (nM), killing of endogenous B cells by PBMCs, Donor 234 [6]: 0.0207 nM
3 | B3 | 0.0329 nM |  | 0.004 nM |  | 0.003 nM | 0.0452 nM | 0.29 nM | 0.005 nM | 0.0329 nM | 0.0329 nM | 0.006 nM | 0.003 nM | 0.002 nM | 0.005 nM | 0.334 nM | 0.001 nM | 0.0833 nM | 
4 | B4 | 0.0253 nM |  | 0.003 nM |  | 0.001 nM | 0.0123 nM | 0.841 nM | 0.006 nM | 0.0253 nM | 0.0253 nM |  |  |  |  |  |  |  | 
5 | B5 |  | 0.003 nM |  | 0.003 nM |  |  |  |  |  |  | 0.002 nM |  | 0.001 nM |  |  | 0.001 nM |  | 
6 | B6 | 0.0062 nM | 0.002 nM |  | 0.001 nM | 0.0009 nM | 0.043 nM | 0.0643 nM | 0.0014 nM | 0.00617 nM | 0.00617 nM | 0.0008 nM | 0.002 nM | 0.0004 nM | 0.002 nM | 0.131 nM | 0.0007 nM | 0.0231 nM | IC50 (nM), Ramos cell killing by M0 macrophages, Donor 159 [2]: 0.001 nM; IC50 (nM), Ramos cell killing by M0 macrophages, Donor 161 [2]: 0.0008 nM

Source: patent US20260201033A1 (LTZ THERAPEUTICS, published 2026)
